In patent US20190225652A1, “GENERATION OF PEPTIDES” (Hexima Limited, priority 2015, published 2019):

Legend:
[1] = system: rOaAEP1b, rOaAEP3, rOaAEP4 and rOaAEP5; assay: Intermolecular ligation assay with recombinant AEPs; format: biochemical, Oldenlandia affinis; conditions: target 140 μM, ligation partner GLK-biotin 700 μM, enzymes 19.7 μg mL^−1, 6 h, MALDI-MS
Procedure: Target peptides (140 μM) were incubated with a ligation partner peptide (700 μM) and a recombinant AEP (rOaAEP1b, rOaAEP3, rOaAEP4 or rOaAEP5 at 19.7 μg mL^−1 total protein) in activity buffer (50 mM sodium acetate, 50 mM NaCl, 1 mM EDTA, 0.5 μM TCEP, pH 5). The reaction was allowed to proceed for up to 22 hours at room temperature and was analysed by MALDI MS or electrospray ionisation (ESI) mass spectrometry as appropriate.
(§1) Cyclization or inter-molecular ligation of linear target peptides was monitored by MALDI or ESI MS. In both cases, the reaction mixture (5-50 μL) was de-salted using C18 zip tips (Millipore) and eluted in 4 μL 50-75% v/v acetonitrile, 0.1% v/v trifluoroacetic acid (TFA).
(§2) For MALDI MS, a saturated MALDI matrix solution (α-cyano-4-hyroxycinnamic acid, CHCA, Bruker) prepared in 95% v/v acetonitrile, 0.1% v/v TFA was diluted 1:22 such that the final matrix solution comprised 90% v/v acetonitrile, 0.1% v/v TFA and 1 mM NH4H2PO4. Eluted samples were mixed 1:4 with the MALDI matrix, spotted onto a MALDI plate and analyzed by an Ultraflex III TOF/TOF (Bruker) in positive reflector mode. Data were analyzed using the flexAnalysis program (Bruker).
(§3) For ESI MS, 96 μl of 75% v/v acetonitrile, 01% v/v TFA was added to the de-salted sample. The sample was then injected into a MicroTOF Q (Bruker) and data was collected in positive ionisation mode. The mass of ligated or cyclized product was determined by charge deconvolution using the Compass DataAnalysis program (Bruker).
To investigate the ability of recombinantly produced AEPs to perform inter-molecular ligation (as well as the intra-molecular ligation required to produce backbone-cyclized peptides), target peptides were incubated with ligation partner peptides as well as active enzyme (FIG. 11). The appearance of new linear peptides were tracked. […]

[2] = system: rOaAEP1b, rOaAEP3, rOaAEP4 and rOaAEP5; assay: Cyclization assay with rOaAEP1b, rOaAEP3, rOaAEP4 and rOaAEP5 (MALDI/ESI MS); format: biochemical, Oldenlandia affinis; conditions: peptides with added AEP recognition residues, 280 μM, enzymes 19.7 μg mL^−1 total protein, MS
Procedure: Linear target peptides (280 μM, unless otherwise indicated) were incubated with rOaAEP1b, rOaAEP3, rOaAEP4 or rOaAEP5 (total protein concentration as indicated in the description of figures) in activity buffer (50 mM sodium acetate, 50 mM NaCl, 1 mM ethylenediaminetetraacetic acid [EDTA], 0.5 μM Tris(2-carboxyethyl)phosphine hydrochloride [TCEP], pH 5). The reaction was allowed to proceed for up to 22 hours at room temperature and was analysed by matrix-assisted laser desorption/ionization mass spectrometry (MALDI MS), high performance liquid chromatography (HPLC) or nuclear magnetic resonance (NMR) as appropriate.
as §1, §2, §3
The ability of activated AEPs (rOaAEP1b, rOaAEP3, rOaAEP4 and rOaAEP5) to cyclize peptide substrates structurally unrelated to cyclotides was tested in the cyclization assay described in the Materials and Methods. The anti-malarial peptide R1 (Harris et al. (2009) J Biol Chem 284(14):9361-9371; Harris et al. (2005) Infect Immun 73(10):6981-6989); Bac2A, a linear derivative of the bovine peptide bactenecin (Wu and Hancock (1999) Antimicrob Agents Ch 43:1274-1276); and the anti-fungal peptide EcAMP1 (Nolde et al. (2011) J Biol Chem 286(28):25145-25153) were produced with additional AEP recognition residues and used as the substrates.
To investigate the sequence requirements for in vitro cyclization, R1 was used as a model peptide. The recognition residues added to this model peptide were sequentially trimmed to determine the minimal requirements for AEP-mediated cyclization. The N- and C-terminal recognition residues were also substituted with alternate amino acids to determine if particular classes of residues were preferred for cyclization by these recombinant AEPs. The ability of activated AEPs (rOaAEP1b, rOaAEP3, rOaAEP4 and rOaAEP5) to cyclize the R1 peptide with varied flanking sequences was then tested in the cyclization assay described in the Materials and Methods (FIG. 10; Table 3).

[3] = Protease activity against IQF peptides; format: biochemical; conditions: for P2′ substrate specificity (wt vs L31A IQF peptide): 50 μM IQF peptides, 37° C., initial velocity
Procedure: FIG. 3 is a graphical representation showing expression of active rOaAEP1b in E. coli. (A) Pooled rOaAEP1b-containing anion exchange fractions pre- and post-activation at low pH were diluted 1:14 and tested for activity against the wildtype internally quenched fluorescence (wtIQF) peptide (11 μM) [SEQ ID NO:21]. Baseline fluorescence from a no-substrate control has been subtracted and the relative fluorescence intensity (RFU) at t=90 minutes is reported. A single representative experiment of two technical replicates is shown. (B) Activated rOaAEP1b was captured by cation exchange and the final product analyzed by SDS-PAGE followed by (i) Instant blue staining and (ii) Western blotting with anti-AEP1b polyclonal rabbit serum.
FIGS. 17A and 17B are graphical representations of substrate specificity of plant and human AEPs for wt (SEQ ID NO:21) and L31A (SEQ ID NO:25) IQF peptide substrates. Initial velocity of recombinant O. affinis AEPs (˜10 μg mL^−1 total protein) (17A) and rhuLEG (1.1 μg mL^−1 total protein) (17B) against 50 μM IQF peptide substrates is shown. The assay was conducted at 37° C. The average of two technical replicates are shown and the error bars report the range.
To assay activity of recombinant AEPs (rOaAEP1b, rOaAEP3, rOaAEP4 or rOaAEP5) against both internally-quenched and other fluorescent peptides, substrate and enzyme were diluted as appropriate in activity buffer (50 mM sodium acetate, 50 mM NaCl, 1 mM EDTA, 0.5 μM TCEP, pH 5). […] The change in fluorescence intensity over time was monitored on a SpectraMax M2 (Molecular Devices) using excitation/emission wavelengths of 320/420 nm (IQF peptides) or 360/460 nm (other fluorescent peptides). […]
IQF peptides that incorporate the P1-P4 as well as the P1′-P4′ residues are, however, effectively targeted by recombinant O. affinis AEPs. These peptides contain a fluorescence donor/quencher pair, with fluorescence observed upon the spatial separation of this pair following enzymatic cleavage. […]

[4] = Protease activity against fluorogenic substrate Z-AAN-MCA; format: biochemical; conditions: enzyme ~5 μg mL^−1 total protein, Z-AAN-MCA 100 μM, 37° C., 60 minutes
Procedure: FIG. 15 is a graphical representation of the activity of recombinant O. affinis AEPs (˜5 μg mL^−1 total protein) and rhuLEG (1 μg mL^−1 total protein) over time against the fluorogenic substrate Z-AAN-MCA (100 μM). Activity is tracked at 1 minute intervals at 37° C. for 60 minutes using excitation and emission wavelengths of 360 and 460 nm respectively. A single representative experiment is shown. RFU, relative fluorescence units.
To assay activity of recombinant AEPs (rOaAEP1b, rOaAEP3, rOaAEP4 or rOaAEP5) against both internally-quenched and other fluorescent peptides, substrate and enzyme were diluted as appropriate in activity buffer (50 mM sodium acetate, 50 mM NaCl, 1 mM EDTA, 0.5 μM TCEP, pH 5). To assay activity of recombinant human legumain (rhuLEG; R&D systems) against the same substrates, the enzyme was first activated by incubation in 50 mM sodium acetate, 100 mM NaCl, pH 4 (4 μL buffer/1 μL enzyme) for 2 hours at 37° C. Substrates and activated rhuLEG were diluted in 50 mM acetate, 0.1% v/v triton X 100, 0.5 μM TCEP pH 5.5 or in 50 mM MES, 250 mM NaCl, pH 5 as required. Diluted enzyme and substrate were added to black, flat bottomed microtiter plates in a total assay volume of 100-200 μL. The change in fluorescence intensity over time was monitored on a SpectraMax M2 (Molecular Devices) using excitation/emission wavelengths of 320/420 nm (IQF peptides) or 360/460 nm (other fluorescent peptides).
AEP activity has traditionally been tracked by monitoring cleavage of the fluorescent substrate Z-AAN-MCA (where Z is carboxybenzyl; MCA is 7-amido-4-methylcoumarin) [Saska et al. (2007) supra; Rotari et al. (2001) Biol. Chem. 382:953-959]. Cleavage C-terminal to the Asn liberates the fluorophore which then fluoresces to report substrate cleavage. […] They are Ac-YVAD-CHO, which is routinely used to identify AEP activity (Hatsugai et al. (2004) Science 305(5685): 855-858) and Ac-STRN-CHO, which represents the P1-P4 residues of the C-terminal kB1 cleavage site. These traditional routes of identifying AEP activity will therefore likely be ineffective for identification of AEPs with cyclizing ability.

[5] = system: target peptide-linker-ubiquitin-6xHis fusion protein; assay: AEP-mediated processing of target peptides fused to ubiquitin; format: biochemical; conditions: kalata B1-ubiquitin 260 μg mL^−1, AEP 19.7 μg mL^−1 total protein, 22 h, SDS-PAGE/anti-6xHis Western blot

GKVFAEFLPLFSKFGSRMHILKNGL (Target peptide; R1) [SEQ ID NO:83, R1 peptide derivative]
inter-molecular ligation, C-terminal labelling [1]: created a new linear peptide that incorporated a C-terminal biotin
cyclization of linear precursor peptide by recombinant AEPs [2]: poor substrate for backbone cyclization

B1: rhuLEG: recombinant human legumain (R&D systems), an AEP that preferentially functions as a hydrolase (protein, UniProt Q99538 18-323, looked up)
Legumain: VPIDDPEDGGKHWVVIVAGSNGWYNYRHQADACHAYQIIHRNGIPDEQIVVMMYDDIAYSEDNPTPGIVINRPNGTDVYQGVPKDYTGEDVTPQNFLAVLRGDAEAVKGIGSGKVLKSGPQDHVFIYFTDHGSTGILVFPNEDLHVKDLNETIHYMYKHKMYRKMVFYIEACESGSMMNHLPDNINVYATTAANPRESSYACYYDEKRSTYLGDWYSVNWMEDSDVEDLTKETLHKQYHLVKSHTNTSHVMQYGNKTISTMKVMQFQGMKRKASSPVPLPPVTHLDLTPSPDVPLTIMKRKLMNTN
P2′ substrate specificity (wt vs L31A IQF peptide) [3]: not shared

B2: rOaAEP1b: recombinant Oldenlandia affinis asparaginyl endopeptidase OaAEP1b expressed in E. coli, activated (protein)
chain: MVRYLAGAVLLLVVLSVAAAVSGARDGDYLHLPSEVSRFFRPQETNDDHGEDSVGTRWAVLIAGSKGYANYRHQAGVCHAYQILKRGGLKDENIVVFMYDDIAYNESNPRPGVIINSPHGSDVYAGVPKDYTGEEVNAKNFLAAILGNKSAITGGSGKVVDSGPNDHIFIYYTDHGAAGVIGMPSKPYLYADELNDALKKKHASGTYKSLVFYLEACESGSMFEGILPEDLNIYALTSTNTTESSWCYYCPAQENPPPPEYNVCLGDLFSVAWLEDSDVQNSWYETLNQQYHHVDKRISHASHATQYGNLKLGEEGLFVYMGSNPANDNYTSLDGNALTPSSIVVNQRDADLLHLWEKFRKAPEGSARKEVAQTQIFKAMSHRVHIDSSIKLIGKLLFGIEKCTEILNAVRPAGQPLVDDWACLRSLVGTFETHCGSLSEYGMRHTRTIANICNAGISEEQMAEAASQACASIP
modifications: Oldenlandia affinis OaAEP1b
P2′ substrate specificity (wt vs L31A IQF peptide) [3]: preference for a bulky hydrophobic residue such as Leu at the P2′ position
activity against IQF peptide following low pH activation ([3]; wt IQF peptide 11 μM, fractions diluted 1:14, 90 minutes, pre- vs post-activation): dramatically increased
activity against Z-AAN-MCA [4]: nor rOaAEP1b, rOaAEP3, rOaAEP4 or rOaAEP5 (FIG. 15) had detectable activity
proportion of fusion protein enzymatically processed (loss of precursor) [5]: the bulk of the precursor was being enzymatically processed
